# Experiment: soluble on expression in E. coli; label from the status in PepcDB or PDB records
row,Sequence,soluble on expression in E. coli
1,MFCFLQLPYHPNSSVHISTIDRITNSGRLYQYYSAEMTAEVIDFTKRNLEEAMNHNERRLLFRRSRSEPMTLTNENITMTSRTDPEWNMTVDSISIQSSFAEYQHRRKERLKKQEAHKTSEISLSSGPSELAMKGHTDFDAAIEFLDNKMPSTLSLTDSDNSHSSNDITSSQAKEISYEDEMRLFIEKTGHLVTNVFADPFDSDERKSRTEMWVEASTENLAEGGTTSDDVPTEKELELDMENNDILAESVVGTGTGELNDEKDEETVPVGLIPPVARQSTEDSILSSNVTVNSLLKSKLTINLKEASEALSEIDIADVDRFWDYLYEKDDIQKFSDELIYPIKMEIPSTSSSERSIGIALSPIKLDFAGIHVQKTGKIEKHIKMNSNEEKDRELDEPLEITDQTVETRFFELETTKNLEKINRGTTTSEHGNILIKTTASQTPVSQEVVQLVNYEPINFTKAQSDRNFDEKENMIRAFSFKLSESFYKDLKILVVERDRAKEAMDILPAKTMKELSEECNYYQTRYRVRIEQNKEKLDRRIEEVWKKLLKMPIESQEVIDFISVAHSELLTLNARRNLPDNM,not soluble
2,MSLAKKKEIKLEDALWKSADKLRKNIDAAEYKHIVLGLIFLRYISDSFMQKYEELLKEQDDGADPEDADEYLADNIFFVPEKSRYNYIRDNAKNPKIGKMLDEAMDEIEKHNDTLKGVLPKVYAKDNLDSKCLGELIDLIGNIAFDTGKSTDVLGHVFEYFLGEFALAEGKQGGQFYTPKCVVELLVTMLEPYKGRVFDPCCGSGGMFVQSEEFVKSHQGRLDDISIYGQESNQTTYKLAKMNLAIRKIESSQVIWNNEGSFLNDAHKDLKADFIIANPPFNDSDWSGELLENDGRWKYGVPPASNANYAWIQHFLYHLSPNGGVAGFVLAKGALTSNTTNEAAIRKALIEDDLIDCIVNLPAKLFLNTGIPASLWFIRRQKLPKTVKKTLFIDARDLGTRINRRNKTLNKDDINQIANIYKAWKNGTDYEDIKGFCKSVSIDEIRELSYVLTPGRYVGLADSDDEFDFDTRFNELLAKLKSQIKTEQELSEIILKNLEKIKEGHHHHHH,soluble
3,AHHHHHHGSKFPKNFMFGYSWSGFQFEMGLPGSEVESDWWVWVHDKENIASGLVSGDLPENGPAYWHLYKQDHDIAEKLGMDCIRGGIEWARIFPKPTFDVKVDVEKDEEGNIISVDVPESTIKELEKIANMEALEHYRKIYSDWKERGKTFILNLYHWPLPLWIHDPIAVRKLGPDRAPAGWLDEKTVVEFVKFAAFVAYHLDDLVDMWSTMNEPNVVYNQGYINLRSGFPPGYLSFEAAEKAKFNLIQAHIGAYDAIKEYSEKSVGVIYAFAWHDPLAEEYKDEVEEIRKKDYEFVTILHSKGKLDWIGVNYYSRLVYGAKDGHLVPLPGYGFMSERGGFAKSGRPASDFGWEMYPEGLENLLKYLNNAYELPMIITENGMADAADRYRPHYLVSHLKAVYNAMKEGADVRGYLHWSLTDNYEWAQGFRMRFGLVYVDFETKKRYLRPSALVFREIATQKEIPEELAHLADLKFVTRK,not soluble
4,MSLNTIYEPSSICMIRTPLLSVEFFNLFLNTEQIKYSDLQLNAQMKESILTTTFNLYCTLQEINFDGDNKKVRDAKESLLKYLIRMSTRPTPFGLLSGINLGHFVNEPTRLKVGNSIQKYVKVDGEWLYKLVSYIESIDEYYQNLKVIWNSKAHIINDRIYLNEQSAIYLNNNKDTSFSIKNSELLVFIKTTVTNNNITFSNLAEKINQEFEINDITKVKVYIHNLVSKEIIYSTIRPPLSYSDNLNYILNKLSLHNDDFVKKIREIQKLILAYEKTEIGFGEELYKDIIHHMKALFKCKNYLQIDTKIDMINNYLHQDIATNISEAAYLLWLLSRNNIGFTDLKVLHNRFIEKYGFEQLVNIKDLISDITGFGTTIFQEEETDGNNIVMLKQKFLHALRNNDEIVINEKDVESLINDNEINHYHAPMSADVYAELYLGRFYNQYNELIVISPLTASFNAGATFGRFHHLIDTETLAKLEHEKGHYYQKMICDDNVEMISINNIPKYPRNHNVLTNHDSYEYSLNLGSSNSYSKYELTLDDIYVGATFNKLYLYSSQLNKRVIFESNNMYNFLKECNLYRLLREISMESVKCIEPMNDVSIDSFSYSPRIRYKNVILKPAYWKINEMVLPLPKNEEWDQQFLKYQEQFNIPNIVNLVYGDNKLLLNLSLANHRYLLMKEYKKHKRVRLVESFLPQSKNDHVYEIVTPIYKKSSYRGEGHHHHHH,not soluble
5,MGSDKIHHHHHHSCSSKPANTAKGEKGSDKTGKDLELKLSFQEGIAPGESLNEKLDFMEKLGVVGFEPGGGGLAGRVNEIKQALNGRNIKVSAICAGFKGFILSTDPAIRKECMDTMKEIIAAAGELGSTGVIIVPAFNGQVPALPHTMETRDFLCEQFNEMGTFAAQHGTSVIFEPLNRKECFYLRQVADAASLCRDINNPGVRCMGDFWHMTWEETSDMGAFISGGEYLQHVHVASRKRRSMPGEDGDADNYINGFKGLKMIGYNNYVSFECGCQGDRNVVVPAAVKLLREQWEQA,not soluble
6,MEHTIAVIPGSFDPITYGHLDIIERSTDRFDEIHVCVLKNSKKEGTFSLEERMDLIEQSVKHLPNVKVHQFSGLLVDYCEQVGAKTIIRGLRAVSDFEYELRLTSMNKKLNNEIETLYMMSSTNYSFISSSIVKEVAAYRADISEFVPPYVEKALKKKFKLEHHHHHH,soluble
7,MMKPIIREAKPQDKPFIEEIAHLTWDGEDYLARVFDEWIKDGNFYVLELNGKVIGTVKLTLLPNRVSWMEGLRVHPNYHGRGFGKMLHNFIVEKGRMMASEGIIDALEFSPYFLNKKIIAMAEKNGFWVKARFFVASVRVGDFKPEEPIRIEPKLEDLTLGIIPVGWRFIKRSEEALEWIRKNAEVYEYNGLKFIGPKKETIFTPLEPGPAVLKALLPAMAWVAREKDKEEFNLMLSSSIKPVLSVFRRIGVYIWDDAKEPNVLVFRKKLKDKKGLIPFVNKWNYNKEY,not soluble
8,GPGSMITEGAATPCAEVPAIRRVRRTRSRFERLVRPEDVAPGEPTPSVEGWVLFLTNLPPNTTMDHITDLFVTREGEGLWNVREVKMPLDKNCECCGYALVELEKREAFEAALRDMEGMTLSFAEGEPPNGEDAWRLHIAPTFLGEKDDEEEELVAGGKRERE,soluble
9,MNYEGKTKIVKVTGDYALLEFKDDITAGDGLKHDVLTGKGSICAETTAILMKYLSEKGIKTHLVEYIPPRTLKVIPLKMFPLEVVVRLKKAGSFVRRYGGAEGEDLPVPLVEFFIKDDERHDPMVCVDHLEILGIATKKQAEKMKEAAVKITLALKEFFERANFELWDIKYEFGLDKDGNVVLGDEISPDTFRLRKKGEIFDKDVYRRDLGDPLKKYREVLELCRSLNSQ,soluble
10,MGSDKIHHHHHHMTSETVLEIRNVSKHFGAVKALTAVDFRLARGEVHALCGENGAGKSTLMNVIAGVLQPSEGEVLIEGAPVKIASPAVAQSLGIALVHQEIALCPDATIAENMFMAATNRRRSALMNYAQLERDAQAVMNRLAPIDVSQKVGDLPISSQQLVEIAKALTLDCRVLIFDEPTAALTETEAQVLFGIIRDLKARGISIIYISHRMAEVFSLCDRVTVFRDGRYVATEMVSDVTPDDVVRLMVGREISQLYPDKQPSSERLGEPILSVRDLGGERFRDVSFELRYGEILGVGGLIGSGRTEIAEGICALRPVTQGEIRLHDKVLRLRRYSDAAKAGVVYLSEDRKGSGVFLDLSIAQNIAALDLKALTSLGLLNSREERALAEDLTRRLGVRMGGVDMPVSSLSGGNQQKVAIAKQLAVDPKVILMDEPTRGIDVGAKSEIHRLLRELARAGIGILVISSELPELIGLCDRVLVVREGRIAGEVSGNEMTEEVIMRLASGIGPATETNLKASGHAA,not soluble
11,MSLWLQISNARIVCEDHLVEAGLAICDGLIDCFEQGGTSKAEAIDFDGDFLLPGLIDLHTDSVEHFMQPRPGVQWPSPLAAVLAHDWQLLGSGITTVLDALALGDYDSGGTRTAMLNDAIDGLTQARASGLLKTDHYFHFRCELSDPALLPIVERHVDNPGLRLISMMDHTPGQRQWHNLTLYREFRRKKNARVWNEEEFALHLAERREHQQQYVPPGRSTIGHLCRERDIRIASHDDTAAADVDESRGDGITISEFPTTVEAASRARELGMKIVMGSPNIILGGSHSGNVSALELADRGLLDVLTSDYVPGSLLHAAFALAAKGFDLPEAVAMVTKTPADLLGFSDRGRIAPGLRADLIRVRLVEGVPVIRNIWVAGRQYLEGHHHHHH,not soluble
12,MSLSQYAEMSLVYDQLTQDQPYEKWFEIVKNHCKDESNILDIGCGTGSLTVQLEALGNVTGMDLSVDMLTVAAQKSANVNWLEGDMTSFDLQQQFDIITIFCDSLNYLQDETAVIETFINVYHHLTDSGVFIFDVHTVYKMMTLFNNQSYIDDKGDIFLAWDAVQGDLPLSVYHDMTFFIRHEDETYSRFDESHFQRTFDEKTYLSWLAQVGFKHVETFTDFNIDEHNEDTERLFFIAKKEGHHHHHH,soluble
13,MNDGYKQNDIVNHEAYEELEVAEEQIIYCQEEYNDGPGTMVQVQEQTDVPCYVMEGTYFTPENIYAANQDHSVCHFCKEDLTNKRFYNHLFDHHGFTKQQCEMMKQQKRLGRPNPKRKSLHSCENCGMEFITKTGLTSHLKKDNSPCARVDEMAVGGSSVSNIVCPSYGCDKNVPTYLDLAIHVDTEHRDLSRATDSFRIRRVTFQDKAGFMKWKKQMEKSTNSEFFLRTSQKVSFAIRTMLYKCLFSNSRGQSKGRRCEQCPAFIKCCMRNHGQYEVVACFGHLGHEHPTETEIARQMRIEKYREIDALQVRESRMHNQHHMNVRPKQIIVDQYGHPTHPNDEMMILMPVGEEVVEEDAFTSVVVDDADDEIVGPRAQQETPALTRQVYIPTSNHHASSSHY,not soluble
14,MGDVVEMTSELGFKYSILASGSTGNSFYLETPEKKILVDAGLSGKKITSLLAEIDRDPSDLDAILVTHEHKDHIHGVGVLARKYGMDIYANEKTWQIMDSKNMLGKVDNSQKHIFSRGKLLTFGDIDIESFGVSHDAINPQFYRFMKDGKSFVMLTDTGYVSDRMAGLIENADGYLIESNHDIEILRAGSYPWSTKQRILSDQGHLCNEDGADAMIRTIGNKTKKIYLGHLSKENNIKELAYMTMENQLARADFGVGTDFKIFVTSPDTATPLTDILEHHHHHH,not soluble
15,MTTKFVVGYDGSAASRRALDFAMERAKAGGASIIVAHVLEWSPYSFLTPTEIEERHKRRAEEMARAETAILAPLKAELAGSGVEIETAIRYGQVADTLCDIATKSGAAQIFIARQGESGLAARVFGSVAGTLAQYAPVPCTIVP,not soluble
16,MGSDKIHHHHHHMEKLQESMYQLIVETSTNLPKDVRRAIQQAKERENAGTRSAMALGTITNNIKMADDNISPICQDTGMPTFKIYTPVGVNQLKLKEAIYNALERATKDGKLRPNSVDSLFGDNSGNNLGPGTPVIKFEQWEKDYIDARLILKGGGCENKNIQYSLPCELEGLGRAGRDLEGIRKCLLHAVYQAQGQGCSAGVIGVGIGGDRTSGYELAKNQLFRTLDDVNPIPELQQLEEYVLENANKLGIGTMGFGGETTLLGCKIGVYNRLPASFYVSVAYNCWAYRRLGVTIHPETGEIMDWLYQEGEDTLEQEVQEKTEQREIVLQAPITEEQIRELRVGDVVTINGMMYTGRDAIHKHLMDNDCPVDLNGQIIYHCGPVVVKDENDNWQIKAAGPTTSIREEPYQGDIMKKFGIRAVIGKGGMGAKTLAALEEHGGVYLNAIGGAAQYYAECIKEVKDVDFLQFGIPEAMWHLRIDGFKAVVTMDSHGNSLHADVDKTSLEKLASFKEPVFK,not soluble
17,MGSDKIHHHHHHASNPVLRISDGWVADTIAPALIHYRFAGYDSISQAHQNVDVLEVDLTSPSYDIQLVYEEHGDSLSSVAERNNAAAAINGTYEAEASFIKIGGRLLAQNRLDSTHIRYWKHEGAFLFDDDNKNIDIRFASDSTFLSHPAANILSGAPMLIDNNDPVGLNFTGNVEGMDLNKLDYEDFRRHQGVRHPRTAVALTEHKKLLLITVDGRSTQAAGMSANELTRFLLTYFCPQSALNLDGGGSTTMWIASSEQRVGGVVNHPTDNKKFDHAGQRRVTSFIVIKSSENHE,not soluble

# Reference: the DeepSol protein solubility set
